# B1: ΔNterm-Them1 (Mus musculus Thioesterase superfamily member 1, thioesterase domains and START domain, residues 43-594) (enzyme, UniProt Q8VHQ9 43-594, looked up)
# chain: YRNPTEVQMSQLVLPCHTNHRGELSIGQLLKWIDTTACLSAERHAGCPCVTASMDDIYFDHTISVGQVVNIKAKVNRAFNSSMEVGIQVVSEDLCSEKQWSVCKALATFVAHRELSKVKLKQVIPLTEEEKTEHGVAAERRRMRLVYADTIKDLLTHCVIQDDLDKDCSNMVPAEKTRVESVELVLPPHANHQGNTFGGQIMAWMENVATIAASRLCHAHPTLKAIEMFHFRGPSQVGDRLVLKAIVNNAFKHSMEVGVCVEAYRQEAETQRRHINSAFMTFVVLDKDDQPQKLPWIRPQPGEGERRYREASARKKIRLDRKYLVSCKQAEVALSVPWDPSNQVYLSYYNVSSLKTLMAKDNWVLSVEISEVRLYILEEDFLSFHLEMVVNVDAAQVFQLLSDLRRRPEWDKHYRSVELVQQVDEDDAIYHVISPALSGNTKPQDFVILASRRKPCDNGDPYVIALRSVTLPTHHETPEYQRGETLCSGFCLWREGDQMTKVSYYNQATPGFLNYVTTNVSGLSSEFYNTFKACESFLLDNRNDLAPSLQTL
# Molecular target: the molecule itself
# Assay: SEC + AUC
protein,measurement,value
B1,stoichiometry N,3

# Reference: article doi:10.1101/2020.02.18.954917 (bioRxiv, 2020)
